5 substances from patent US20170198014A1, “POLYPEPTIDES AND THEIR USE FOR TREATING INFLUENZA” ([…] ITS CENTER FOR COMMERCIALIZATION, priority 2014, published 2017) can be followed below.

Assay [1] has as its target H1 (A/Solomonislands/3/2006) (Influenza A virus, UniProt A7UPX0). To be noted: read-out: affinity constant via yeast surface display.
Assay [2] deals with H1 (A/NewCaledonia/20/1999) (Influenza A virus, UniProt Q6WG00). As to conditions: read-out: affinity constant via yeast surface display.
Assay [3] has as its target H2 (A/Adachi/2/1957) (Influenza A virus, UniProt B5UA22). To be noted: read-out: affinity constant via yeast surface display.
The target of assay [4] is H3 (A/Hong Kong/1/1968) (Influenza A virus, UniProt Q91MA7). As to conditions: read-out: affinity constant via yeast surface display.
Assay [5] relates to H3N2 A/Victoria/361/2011. The assay is classed as binding, Influenza A.
The target of assay [6] is H3N2 A/Victoria/361/2011. The assay is classed as binding, Influenza A. The source holds these as a separate data set.
Assay [7] deals with H1, H2 and H3. The assay is classed as binding, Influenza A.
Assay [8] addresses HA of H3N2 A/Hong Kong/1/1968 (Influenza A virus, UniProt Q91MA7). To be noted: read-out: Kd (binding constant).
The target in assay [9] is H1N1 A/New Caledonia/20/1999 (Influenza A virus, UniProt Q6WG00). To be noted: read-out: Kd (binding constant).
Assay [10] concerns the target H2N2 A/Adachi/2/1957 (Influenza A virus, UniProt B5UA22). To be noted: read-out: Kd (binding constant).

pKd: −log10 of the molar value.

Sequence of H1 (A/Solomonislands/3/2006) (A7UPX0 1-565): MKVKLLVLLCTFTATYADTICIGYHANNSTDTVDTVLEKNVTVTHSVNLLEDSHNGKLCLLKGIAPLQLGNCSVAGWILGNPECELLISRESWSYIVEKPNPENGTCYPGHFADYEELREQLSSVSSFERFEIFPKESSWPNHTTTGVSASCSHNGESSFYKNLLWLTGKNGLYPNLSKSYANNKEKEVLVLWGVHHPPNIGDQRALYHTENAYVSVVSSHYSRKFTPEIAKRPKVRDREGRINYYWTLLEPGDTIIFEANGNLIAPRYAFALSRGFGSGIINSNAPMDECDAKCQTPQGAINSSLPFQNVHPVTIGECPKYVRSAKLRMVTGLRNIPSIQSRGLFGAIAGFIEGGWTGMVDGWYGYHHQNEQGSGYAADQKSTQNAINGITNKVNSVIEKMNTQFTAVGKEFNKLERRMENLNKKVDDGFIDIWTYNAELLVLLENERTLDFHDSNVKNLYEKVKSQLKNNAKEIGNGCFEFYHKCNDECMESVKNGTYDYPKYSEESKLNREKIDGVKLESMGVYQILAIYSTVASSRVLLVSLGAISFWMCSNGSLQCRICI

For the substance “GIVNVPN(P/C)NTTKYQQLARRAIAIYNNNQNAHLEFVENLN(V/C)KEQTGLGIMYYITLAATDDAGKKKIYKAKIAVVESAGWVAVSEFKLV [52Sing2]”, the pKd is 7.76 in [1] and 7.35 in assay [2].

Consider “GIVNVPN(P/C)NTTKYQQLARSAIAIYNNHQNAHLEFVENLN(V/C)KEQVSYGAMYYITLAATDDAGKKKIYKAKVGVVESAGWVGVEEFKLV [52alt1-3]”, for which the figures for the pKd in assay [3] and in assay [4] were 8.07 and 8.52, respectively.

As to “GIVNVPN(P/C)NTTKYQQLARSAIAIYNYHQNAHLEFVENLN(V/C)KEQLGEGDMYYITLAATDDAGKKKIYKAKIGVVESAGWTGVEEFKLV [52NC-2]”, the “binding by yeast display titrations” value in [5] is “could not be detected”. Besides, in assay [6], the “Kd (binding constant)” value was “could not be detected”. The “binding to HA subtypes” value in assay [7] was “binding to all three subtypes H1, H2 and H3”. For the same substance, the pKd was 8.36 in assay [1]; 7.57 in [2]; 8.02 in [3]; 8.41 in assay [4]; 6.74 in assay [8]; 6.27 in [9]. For the same substance, in assay [10], the pKd was 6.54.

For the substance “GIVNVPN(P/C)NTTKYQQLARSAIAIYNYHQNAHLEFVENLN(V/C)KEQVGGMNMYYITLAATDDAGKKKIYKAKVGVVESAGWKGVEEFKLV [52solo1]”, the pKd was 8.74 in assay [1], 7.68 in assay [2], less than 6.46 in [3] and 7.45 in [4].

Take “GIVNVPN(P/C)NTTKYQQLARSAIAVYNYHQNAHLEFVENLN(V/C)KEQIAGKTMYYITLAATDDAGKKKIYKAKVGVVESAGWEGVEEFKLV [52solo2]”: the pKd was 8.77 in assay [1] and 8.04 in assay [2].
